From PMC10643670, “Functional and structural diversity in deubiquitinases of the Chlamydia-like bacterium Simkania negevensis” (Nature Communications, 2023)

Target: T1, wild-type Met1-linked di-ubiquitin (UniProt P0CG48 1-76; P0CG48 1-76)
T1 construct: ubiquitin, first moiety of the linear fusion (residues 1-76 of the di-ubiquitin); ubiquitin, second moiety of the linear fusion (residues 77-152 of the di-ubiquitin); In the crystal each di-ubiquitin bridges two SnOTU molecules: residues 1-76 lie in the S1' site of one SnOTU and residues 77-152 in the S1 site of the other; also called linear di-ubiquitin; M1-linked di-ubiquitin; source: expressed …
Test: crystal structure; catalytic inactive SnOTU 1-255 and linear di-ubiquitin mixed in a 1:1.1 ratio; sitting drop vapor diffusion, 4 °C; 0.25 M magnesium formate, 20% w/v PEG 3350, 0.02 M EDTA disodium salt
Conditions: both partners purified

B1: catalytically inactivated (C82A) fragment SnOTU 1-255 (domain or fragment)
chain: MSLPVKERPDAIYTFEGKTYENTSFSKTGIPIVGQPLKMEAYVHKEYTHVTSLEGKRFKSQLEEAAKIYGEQLHEIQGDGNALTTAFATSFLYLLNGNATLIATFDNILIGLDAHKNIPPVRQTIEKLKVKNDLELKQILASNETMFAFSSVIRHLARQKLPELGEPFSLLIDEMVPEEDGKEIEIACIGGLCQLLNICADVIYLRKDYDTFKIERYPNETGKPDLVILRKAAHFLSIILDSKKSIEERTNELGK
notes: resolved from residues 2 to 242 in PDB 8CMR; Amplified from S. negevensis genomic DNA (DSM No.27360), cloned into pOPIN-S; source: E. coli Rosetta (DE3) pLysS, purified (HisTrap FF, tag removal, SEC); not shown: His6, N-terminal, cleaved; Smt3, N-terminal, cleaved
Question: Does B1 bind?
Answer: Result: binds
